Test results reported in PMC3194040.

Molecular target: Recombinant full-length His6-tagged DEG7 (Ser206Ala) (Arabidopsis thaliana)
Assay: SEC

Substance: Recombinant full-length His6-tagged DEG7 (Ser206Ala) (enzyme)
- stoichiometry N: 3
